The data set has as its system C[C@H](CCC[C@@H](C)[C@H]1CC[C@H]2[C@@H]3CCC4=CC(=O)CC[C@]4(C)[C@H]3CC[C@]12C)C(=O)SCCNC(=O)CCNC(=O)[C@H](O)C(C)(C)COP(=O)(O)OP(=O)(O)OC[C@H]1O[C@@H](n2cnc3c(N)ncnc32)[C@H](O)[C@@H]1OP(=O)(O)O. Put plainly: purified protein. Particulars: pH 8.5; 25.0 °C.

By Km is commonly meant the substrate concentration at which the rate is half of its maximum.

For “MCR (Rv1143) (Mycobacterium tuberculosis H37Rv)”, the Km was 6.5 ± 1.4 µM.

These data come from publication PMC4600597.
